# According to doi:10.1101/2023.08.25.554789:
# How the values were obtained:
# [1] = biological target: apCC-Hex-LLIA; assay: AUC
# [2] = biological target: apCC-Hex-LLIA; assay: crystal structure
substance,measurement,setting,value
apCC-Hex-LLIA (peptide),stoichiometry N,[1],6
same,stoichiometry N,[2],6
